From US20260151494A1 (ARO BIOTHERAPEUTICS, published 2026)

Tests used:
[1] = molecular target: T1, human CD71 extracellular domain (human, UniProt P02786 89-760); experiment: primary ELISA; also: test concentration or dose not given here
T1 construct: also called hCD71; CD71-ECD

[2] = molecular target: T2, human apical domain of CD71 (human, UniProt P02786 189-383, limits assumed); experiment: primary ELISA; also: test concentration or dose not given here
T2 construct: domain: apical domain

[3] = molecular target: T1, human CD71 extracellular domain; experiment: primary ELISA; signal over HSA control; as to RLU: test concentration or dose not given here
[4] = molecular target: T2, human apical domain of CD71; experiment: primary ELISA; signal over HSA control; as to RLU: test concentration or dose not given here
[5] = molecular target: T3, human CD71 extracellular domain (human, UniProt P02786 89-760, biotinylated); experiment: primary ELISA; also: test concentration or dose not given here
T3 construct: also called hCD71; CD71-ECD

[6] = molecular target: T4, apical domain of human CD71 (human, UniProt P02786 189-383, limits assumed); experiment: primary ELISA; also: test concentration or dose not given here
T4 construct: domain: apical domain; Screen 4 panned on human apical domains, the ELISA text says only 'apical domain'

[7] = molecular target: T3, human CD71 extracellular domain; experiment: primary ELISA, RLU over HSA
[8] = molecular target: T4, apical domain of human CD71; experiment: primary ELISA, RLU over HSA

T2 sequence (P02786 189-383 limits assumed): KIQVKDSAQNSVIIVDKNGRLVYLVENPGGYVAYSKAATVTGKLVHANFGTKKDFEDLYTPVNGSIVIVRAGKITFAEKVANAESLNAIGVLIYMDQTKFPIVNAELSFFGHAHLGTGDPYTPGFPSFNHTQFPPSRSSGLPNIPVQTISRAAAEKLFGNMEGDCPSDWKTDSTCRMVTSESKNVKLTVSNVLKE
T4 sequence (P02786 189-383 limits assumed): as above
T1 sequence (P02786 89-760): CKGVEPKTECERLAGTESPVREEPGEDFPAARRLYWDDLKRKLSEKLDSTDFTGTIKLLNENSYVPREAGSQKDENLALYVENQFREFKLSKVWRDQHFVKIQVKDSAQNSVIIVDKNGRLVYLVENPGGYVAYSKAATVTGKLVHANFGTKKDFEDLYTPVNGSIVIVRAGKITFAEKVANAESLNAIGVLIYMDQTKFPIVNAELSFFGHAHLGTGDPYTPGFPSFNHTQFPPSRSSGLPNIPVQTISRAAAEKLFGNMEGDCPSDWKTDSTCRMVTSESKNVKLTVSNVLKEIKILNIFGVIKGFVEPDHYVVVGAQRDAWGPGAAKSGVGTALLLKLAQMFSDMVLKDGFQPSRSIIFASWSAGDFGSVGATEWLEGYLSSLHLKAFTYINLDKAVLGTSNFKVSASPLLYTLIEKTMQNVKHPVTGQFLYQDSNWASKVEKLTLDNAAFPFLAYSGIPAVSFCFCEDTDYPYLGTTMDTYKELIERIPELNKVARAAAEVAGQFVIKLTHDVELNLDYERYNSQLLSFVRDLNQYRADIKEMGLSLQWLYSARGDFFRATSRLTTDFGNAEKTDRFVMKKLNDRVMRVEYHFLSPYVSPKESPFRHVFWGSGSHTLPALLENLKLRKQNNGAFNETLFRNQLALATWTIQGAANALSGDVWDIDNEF
T3 sequence (P02786 89-760): as above

| Binder | RLU [1] [RLU] | RLU [2] [RLU] | hCD71:HSA [3] [ratio] | Apical domain:HSA [4] [ratio] | RLU [5] [RLU] | RLU [6] [RLU] | hCD71:HSA [7] | Apical domain:HSA [8] |
| --- | --- | --- | --- | --- | --- | --- | --- | --- |
| CD71-binding FN3 domain SEQ ID NO 371 (designed binder) MLPAPKNLVVSRVTEDSARLSWTAPDAAFDSFDIDYVEFGWTGEAIALLVPGSERSYDLTGLKPGTEYWVWIGGVKGGDYSPPLNAYFTT | 2.08e+06 | 4.4e+06 | 45 | 95 |  |  |  |  |
| CD71-binding FN3 domain of SEQ ID NO: 507 (designed binder) MLPAPKNLVVSRVTEDSARLSWTAPDAAFDSFFIGYLEPQPPGEAIHLLVPGSERSYDLTGLKPGTEYNVTIQGVKGGFPSMPLSAIFTT |  |  |  |  | 3.52e+06 | 4.83e+06 | 178 | 245 |
| CD71-binding FN3 domain of SEQ ID NO: 446 (designed binder) MLPAPKNLVVSRVTEDSARLSWTAPDAAFDSFFIGYLEPQPPGEAIQLFVPGSERSYDLTGLKPGTEYNVTIQGVKGGFPSLPLIAYFTT |  |  |  |  | 4.75e+06 | 5.51e+06 | 37 | 42 |
| CD71-binding FN3 domain of SEQ ID NO: 448 (designed binder) MLPAPKNLVVSRVTEDSARLSWTAPDAAFDSFFIGYLEPQPPGEAIDLYVPGSERSYDLTGLKPGTEYNVTIQGVKGGFPSMPLYARFTT |  |  |  |  | 4.73e+06 | 4.76e+06 | 74 | 74 |
| CD71-binding FN3 domain of SEQ ID NO: 447 (designed binder) MLPAPKNLVVSRVTEDSARLSWTAPDAAFDSFFIGYLEPQPPGEAIYLYVPGSERSYDLTGLKPGTEYNVTIQGVKGGFPSYPLTAQFTT |  |  |  |  | 5.86e+06 | 5.25e+06 | 152 | 136 |
| CD71-binding FN3 domain SEQ ID NO 384 (designed binder) MLPAPKNLVVSRVTEDSARLSWTAPDAAFDSFEIDYAENRHHGEAIALLVPGSERSYDLTGLKPGTEYIVFIGGVKGGRWSQPLVASFTT | 2.04e+06 | 5.55e+06 | 21 | 57 |  |  |  |  |
| CD71-binding FN3 domain SEQ ID NO 406 (designed binder) MLPAPKNLVVSRVTEDSARLSWTAPDAAFDSFFIDYDESLDSGEAIVLTVPGSERSYDLTGLKPGTEYNVTIQGVKGGFPSSPLEAAFTT | 1.42e+06 | 3.68e+06 | 185 | 478 |  |  |  |  |
| CD71-binding FN3 domain SEQ ID NO 379 (designed binder) MLPAPKNLVVSRVTEDSARLSWTAPDAAFDSFYIEYWEGYRSGEAIVLTVPGSERSYDLTGLKPGTEYRVHIWGVKGGAVSYPLSAIFTT | 1.4e+06 | 5.13e+06 | 65 | 239 |  |  |  |  |
| CD71-binding FN3 domain SEQ ID NO 442 (designed binder) MLPAPKNLVVSRVTEDSARLSWTAPDAAFDSFEIWYAEWRQVGEAIVLTVPGSERSYDLTGLKPGTEYNVDIHGVKGGKVSWPLSAISTT | 4.92e+06 | 6.23e+06 | 172 | 217 |  |  |  |  |
| CD71-binding FN3 domain SEQ ID NO 444 (designed binder) MLPAPKNLVVSRVTEDSARLSWTAPDAAFDSFEIDYVEFIFTGEAIGLIVPGSERSYDLTGLKPGTKYWVTIAGVKGGEWSTPLQAFFTT | 2.8e+06 | 5.12e+06 | 48 | 89 |  |  |  |  |
| CD71-binding FN3 domain SEQ ID NO 397 (designed binder) MLPAPKNLVVSRVTEDSARLSWTAPDAAFDSFIILYGEAQYDGEAIVLTVPGSERSYDLTGLKPGTEYPVDIYGVKGGPYSWPLSAIFTT | 1.65e+06 | 5.57e+06 | 25 | 84 |  |  |  |  |
| CD71-binding FN3 domain SEQ ID NO 402 (designed binder) MLPAPKNLVVSRVTEDSARLSWTAPDAAFDSFGIYYWEYTGGEAIVLTVPGSERSYDLTGLKPGTEYVVRILGVKGGAYSTPLSAIFTT | 2.17e+06 | 4.77e+06 | 209 | 459 |  |  |  |  |
